± gives the standard deviation of the averaged measurements.
Key:
[1] = test system: VchCAST RNA-guided transposition machinery (E. coli BL21(DE3) host, lacZ target); assay: relative integration efficiency (T-LR orientation) vs wild-type transposon end (log2 (normalized fold change)); transposon end mutated: left end; higher = more efficient transposition
How it was run: (§1)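 Relative integration efficiency is a fold change of output over input barcode abundance, normalised to reference barcodes and log-transformed. Input plasmids and genomic integration junctions were PCR-amplified and Illumina-sequenced from E. coli BL21(DE3) co-transformed with a T7-driven effector plasmid and pUC57 donor pools of 1549 left-end or 1849 right-end transposon variants. Plating was done with 0.1 mM IPTG at 37°C for 18 h, with two biological output replicates and four reference barcodes.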

[2] = test system: VchCAST RNA-guided transposition machinery (E. coli BL21(DE3) host, lacZ target); assay: relative integration efficiency (T-RL orientation) vs wild-type transposon end (log2 (normalized fold change)); transposon end mutated: left end; higher = more efficient transposition
How it was run: as §1

Sequence | relative integration efficiency (log2) [1] | relative integration efficiency (log2) [2]
AATGTTGTTGATGCAACCATAAAGTGATATTTAATAATTATTTATACAACCATATATTGATATCTCATCAGCAACTTAACCACAAAAACAAAACAACCATAAGTTGATATTTTTGTGAATCGAGTATTTCAGCAAAACTACTGCAGTAAGAA | -1.08 ± 0.46 | -4.35 ± 0.47
AATGTTGTTGATGCAACCATAAAGTGATATTTAATAATTATTTATACGACTACCAGGCCAACACCCCACCAACGCGCGGTCGCGAGACACCCCACCAACGCCTGGTCGCGGGGGTGTCCGATCTGATTTCAGCAAAACTACTGCAGTAAGAA | -4.47 ± 0.46 | -6.45 ± 1.3
AATGTTGTTGATGCAACCATAAAGTGATATTTAATAATTATTTATCAACCATAAAGTGATATTTAACCAACCATATATTGATATCTCACAAAACAACCATAAGTTGATATTTTTGTGAATCGAGTATTTCAGCAAAACTACTGCAGTAAGAA | -2.57 ± 2 | -6.32 ± 2.1
AATGTTGTTGATGCAACCATAAAGTGATATTTAATAATTATTTATCAACCATATATTGATATCTCAATCAGCAACTTAACCACAAAAACAAAACAACCATAAGTTGATATTTTTGTGAATCGAGTATTTCAGCAAAACTACTGCAGTAAGAA | -2.91 ± 2.7 | -4.61 ± 1.4
AATGTTGTTGATGCAACCATAAAGTGATATTTAATAATTATTTATCAACCATATATTGATATCTCACAAAACAACCATAAGTTGATATTTTTGTGAATCGAGTATTTCAGCAAAACTACTGCAGTAAGAAAGTTACTTCGTGGTATGGGAGG | -3.55 ± 2.2 | -6.15 ± 0.83
AATGTTGTTGATGCAACCATAAAGTGATATTTAATAATTATTTCAACCATATATTGATATCTCACAAAACAACCATAAGTTGATATTTTTGTGAATCGAGTATTTCAGCAAAACTACTGCAGTAAGAAAGTTACTTCGTGGTATGGGAGGAT | -3.12 ± 1.5 | -6.94 ± 1.9
AATGTTGTTGATGCAACCATAAAGTGATATTTAATAATTATTTCGAACTAGTTAACTAGTACGCAAACAACCATATATTGATATCTCACAAAACAACCATAAGTTGATATTTTTGTGAATCGAGTATTTCAGCAAAACTACTGCAGTAAGAA | < -10 | -4.69 ± 1.4
AATGTTGTTGATGCAACCATAAAGTGATATTTAATAATTATTTCGCCGACTACCAGGCCAACACCCCACCAACGCGCGGTCGCGAGACACCCCACCAACGCCTGGTCGCGGGGGTGTCCGATCTGATTTCAGCAAAACTACTGCAGTAAGAA | -6.08 ± 3.8 | -7.27 ± 1.6
AATGTTGTTGATGCAACCATAAAGTGATATTTAATAATTCAACCATATATTGATATCTCATTTATAATCAGCAACTTAACCACAAAAACAAAACAACCATAAGTTGATATTTTTGTGAATCGAGTATTTCAGCAAAACTACTGCAGTAAGAA | -2.63 ± 2.9 | -3.05 ± 1.3
AATGTTGTTGATGCAACCATAAAGTGATATTTAATAATTGGCAGTGAGCGCAACGCAATTCACAAAACAACCATATATTGATATCTCACAAAACAACCATAAGTTGATATTTTTGTGAATCGAGTATTTCAGCAAAACTACTGCAGTAAGAA | -3.88 ± 2.9 | -2.76 ± 1
AATGTTGTTGATGCAACCATAAAGTGATATTTAATACAACCATAAAGTGATATTTAACTTAACCACACAACCATATATTGATATCTCACAAAACAACCATAAGTTGATATTTTTGTGAATCGAGTATTTCAGCAAAACTACTGCAGTAAGAA | -3.38 ± 1.9 | -5.26 ± 0.97
AATGTTGTTGATGCAACCATAAAGTGATATTTAATACAACCATATATTGATATCTCACAAAACAACCATAAGTTGATATTTTTGTGAATCGAGTATTTCAGCAAAACTACTGCAGTAAGAAAGTTACTTCGTGGTATGGGAGGATCAAGGAG | -2.15 ± 1.6 | -4.83 ± 1.7
AATGTTGTTGATGCAACCATAAAGTGATATTTAATACAACCATATATTGATATCTCATTATTTATAATCAGCAACTTAACCACAAAAACAAAACAACCATAAGTTGATATTTTTGTGAATCGAGTATTTCAGCAAAACTACTGCAGTAAGAA | -3.41 ± 3.5 | -4.61 ± 1.8

— the supplement of paper PMC10201428
